From the array DNA melting data of Ke et al.

experiment: melting temperature; melt of duplexes; settings: sodium 0.0675 M; strand 1 µM

In order of rising Tm:
1. CGACGTGCCATATGTGCTG+CAGCACATCGTGCACGTCG ((((((((...((((((((+))))))))...))))))))  44.2 °C
2. CGACGTGCACGATGTGCTG+CAGCACATGAAGCACGTCG ((((((((...((((((((+))))))))...))))))))  46.2 °C
3. CGACGTGCACTATGTGCTG+CAGCACATTAGGCACGTCG ((((((((...((((((((+))))))))...))))))))  46.4 °C
4. CGACGTGCTTTATGTGCTG+CAGCACATGCCGCACGTCG ((((((((...((((((((+))))))))...))))))))  46.7 °C
5. CGACGTGCTCGATGTGCTG+CAGCACATGCTGCACGTCG ((((((((...((((((((+))))))))...))))))))  47 °C
6. CGACGTGCCTAATGTGCTG+CAGCACATCGCGCACGTCG ((((((((...((((((((+))))))))...))))))))  47 °C
7. CGACGTGCCCCATGTGCTG+CAGCACATCCAGCACGTCG ((((((((...((((((((+))))))))...))))))))  47.4 °C
8. CGACGTGCATCATGTGCTG+CAGCACATCTGGCACGTCG ((((((((...((((((((+))))))))...))))))))  47.5 °C
9. CGACGTGCATAATGTGCTG+CAGCACATCTCGCACGTCG ((((((((...((((((((+))))))))...))))))))  47.6 °C
10. CGACGTGCTATATGTGCTG+CAGCACATTCCGCACGTCG ((((((((...((((((((+))))))))...))))))))  47.8 °C
11. CGACGTGCGCCATGTGCTG+CAGCACATCATGCACGTCG ((((((((...((((((((+))))))))...))))))))  47.8 °C
12. CGACGTGCCCTATGTGCTG+CAGCACATTATGCACGTCG ((((((((...((((((((+))))))))...))))))))  48 °C
13. CGACGTGCTTAATGTGCTG+CAGCACATCCTGCACGTCG ((((((((...((((((((+))))))))...))))))))  48.4 °C
14. CGACGTGCTACATGTGCTG+CAGCACATCCGGCACGTCG ((((((((...((((((((+))))))))...))))))))  48.7 °C
15. CGACGTGCACTATGTGCTG+CAGCACATTGCGCACGTCG ((((((((.(.((((((((+)))))))).).))))))))  48.8 °C
16. CGACGTGCCGTATGTGCTG+CAGCACATGTAGCACGTCG ((((((((...((((((((+))))))))...))))))))  49.1 °C
17. CGACGTGCGCAATGTGCTG+CAGCACATATTGCACGTCG ((((((((...((((((((+))))))))...))))))))  49.2 °C
18. CGACGTGCCAAATGTGCTG+CAGCACATCAAGCACGTCG ((((((((...((((((((+))))))))...))))))))  49.3 °C
19. CGACGTGCGATATGTGCTG+CAGCACATCCGGCACGTCG ((((((((...((((((((+))))))))...))))))))  49.3 °C
20. CGACGTGCACCATGTGCTG+CAGCACATCGTGCACGTCG ((((((((((.((((((((+)))))))).))))))))))  49.6 °C
21. CGACGTGCCCGATGTGCTG+CAGCACATGCAGCACGTCG ((((((((...((((((((+))))))))...))))))))  49.6 °C
22. CGACGTGCCCCATGTGCTG+CAGCACATGCTGCACGTCG ((((((((..(((((((((+)))))))))..))))))))  49.7 °C
23. CGACGTGCCCAATGTGCTG+CAGCACATTATGCACGTCG ((((((((..(((((((((+)))))))))..))))))))  50.1 °C
24. CGACGTGCCGTATGTGCTG+CAGCACATTCAGCACGTCG ((((((((.(.((((((((+)))))))).).))))))))  50.1 °C
25. CGACGTGCGCTATGTGCTG+CAGCACATCTAGCACGTCG ((((((((...((((((((+))))))))...))))))))  50.4 °C
26. CGACGTGCACCATGTGCTG+CAGCACATGCAGCACGTCG ((((((((..(((((((((+)))))))))..))))))))  50.4 °C
27. CGACGTGCGAGATGTGCTG+CAGCACATGCTGCACGTCG ((((((((...((((((((+))))))))...))))))))  50.4 °C
28. CGACGTGCACGATGTGCTG+CAGCACATCTCGCACGTCG ((((((((..(((((((((+)))))))))..))))))))  50.6 °C
29. CGACGTGCTATATGTGCTG+CAGCACATAACGCACGTCG ((((((((..(((((((((+)))))))))..))))))))  50.8 °C
30. CGACGTGCGAGATGTGCTG+CAGCACATAAGGCACGTCG ((((((((...((((((((+))))))))...))))))))  51.1 °C
31. CGACGTGCCCCATGTGCTG+CAGCACATGTCGCACGTCG ((((((((..(((((((((+)))))))))..))))))))  51.2 °C
32. CGACGTGCACGATGTGCTG+CAGCACATCTAGCACGTCG ((((((((..(((((((((+)))))))))..))))))))  51.3 °C
33. CGACGTGCTGTATGTGCTG+CAGCACATGGGGCACGTCG ((((((((...((((((((+))))))))...))))))))  51.4 °C
34. CGACGTGCGACATGTGCTG+CAGCACATCTAGCACGTCG ((((((((.(.((((((((+)))))))).).))))))))  51.5 °C
35. CGACGTGCAGTATGTGCTG+CAGCACATTACGCACGTCG ((((((((...((((((((+))))))))...))))))))  52.1 °C
36. CGACGTGCTGTATGTGCTG+CAGCACATAGGGCACGTCG ((((((((..(((((((((+)))))))))..))))))))  52.2 °C
37. CGACGTGCAAGATGTGCTG+CAGCACATGATGCACGTCG (((((((((..((((((((+))))))))..)))))))))  52.3 °C
38. CGACGTGCTACATGTGCTG+CAGCACATGCCGCACGTCG ((((((((..(((((((((+)))))))))..))))))))  52.3 °C
39. CGACGTGCCCGATGTGCTG+CAGCACATCTTGCACGTCG ((((((((..(((((((((+)))))))))..))))))))  52.5 °C
40. CGACGTGCACAATGTGCTG+CAGCACATGGAGCACGTCG ((((((((.(.((((((((+)))))))).).))))))))  52.5 °C
41. CGACGTGCGTCATGTGCTG+CAGCACATCAAGCACGTCG ((((((((.(.((((((((+)))))))).).))))))))  52.6 °C
42. CGACGTGCAATATGTGCTG+CAGCACATAGAGCACGTCG ((((((((..(((((((((+)))))))))..))))))))  52.7 °C
43. CGACGTGCCCGATGTGCTG+CAGCACATCCAGCACGTCG ((((((((..(((((((((+)))))))))..))))))))  52.7 °C
44. CGACGTGCGGTATGTGCTG+CAGCACATAAGGCACGTCG ((((((((..(((((((((+)))))))))..))))))))  53 °C
45. CGACGTGCGCAATGTGCTG+CAGCACATCAAGCACGTCG ((((((((...((((((((+))))))))...))))))))  53.1 °C
46. CGACGTGCCGAATGTGCTG+CAGCACATGGAGCACGTCG ((((((((...((((((((+))))))))...))))))))  53.1 °C
47. CGACGTGCCCTATGTGCTG+CAGCACATCTGGCACGTCG (((((((((..((((((((+))))))))..)))))))))  53.2 °C
48. CGACGTGCGAGATGTGCTG+CAGCACATATGGCACGTCG ((((((((.(.((((((((+)))))))).).))))))))  53.3 °C
49. CGACGTGCTTCATGTGCTG+CAGCACATCAAGCACGTCG ((((((((((.((((((((+)))))))).))))))))))  53.3 °C
50. CGACGTGCGGCATGTGCTG+CAGCACATTTCGCACGTCG (((((((((..((((((((+))))))))..)))))))))  53.4 °C
51. CGACGTGCGGAATGTGCTG+CAGCACATTGGGCACGTCG ((((((((..(((((((((+)))))))))..))))))))  53.5 °C
52. CGACGTGCTGAATGTGCTG+CAGCACATATAGCACGTCG (((((((((..((((((((+))))))))..)))))))))  53.7 °C
53. CGACGTGCAAGATGTGCTG+CAGCACATCACGCACGTCG ((((((((..(((((((((+)))))))))..))))))))  53.8 °C
54. CGACGTGCCTTATGTGCTG+CAGCACATTTGGCACGTCG (((((((((..((((((((+))))))))..)))))))))  54.3 °C
55. CGACGTGCCAGATGTGCTG+CAGCACATCCTGCACGTCG ((((((((..(((((((((+)))))))))..))))))))  54.3 °C
56. CGACGTGCTGTATGTGCTG+CAGCACATGAAGCACGTCG (((((((((..((((((((+))))))))..)))))))))  54.9 °C
57. CGACGTGCGTGATGTGCTG+CAGCACATACCGCACGTCG (((((((((..((((((((+))))))))..)))))))))  55.3 °C
58. CGACGTGCTGTATGTGCTG+CAGCACATCCAGCACGTCG ((((((((((.((((((((+)))))))).))))))))))  55.5 °C
59. CGACGTGCGCGATGTGCTG+CAGCACATGGGGCACGTCG ((((((((.(.((((((((+)))))))).).))))))))  55.6 °C
60. CGACGTGCGCGATGTGCTG+CAGCACATCCAGCACGTCG ((((((((..(((((((((+)))))))))..))))))))  55.6 °C
61. CGACGTGCACGATGTGCTG+CAGCACATGGTGCACGTCG ((((((((((.((((((((+)))))))).))))))))))  55.8 °C
62. CGACGTGCCAGATGTGCTG+CAGCACATAGGGCACGTCG (((((((((..((((((((+))))))))..)))))))))  55.8 °C
63. CGACGTGCGCAATGTGCTG+CAGCACATGTCGCACGTCG (((((((((..((((((((+))))))))..)))))))))  56.1 °C
64. CGACGTGCCCAATGTGCTG+CAGCACATGAGGCACGTCG (((((((((..((((((((+))))))))..)))))))))  56.1 °C
65. CGACGTGCTAGATGTGCTG+CAGCACATTTAGCACGTCG ((((((((((.((((((((+)))))))).))))))))))  56.6 °C
66. CGACGTGCAGAATGTGCTG+CAGCACATCCTGCACGTCG ((((((((((.((((((((+)))))))).))))))))))  57.4 °C
67. CGACGTGCTGCATGTGCTG+CAGCACATACAGCACGTCG ((((((((((.((((((((+)))))))).))))))))))  58.2 °C
68. CGACGTGCGCTATGTGCTG+CAGCACATAGTGCACGTCG ((((((((.((((((((((+)))))))))).))))))))  58.2 °C
69. CGACGTGCCCCATGTGCTG+CAGCACATTGGGCACGTCG ((((((((((.((((((((+)))))))).))))))))))  58.5 °C
70. CGACGTGCGTTATGTGCTG+CAGCACATTACGCACGTCG ((((((((((.((((((((+)))))))).))))))))))  58.6 °C
71. CGACGTGCTCAATGTGCTG+CAGCACATTGAGCACGTCG (((((((((((((((((((+)))))))))))))))))))  64.2 °C
72. CGACGTGCGCCATGTGCTG+CAGCACATGGCGCACGTCG (((((((((((((((((((+)))))))))))))))))))  68.7 °C
